According to PMC8779868, “Uncovering Novel Plasma Membrane Carboxylate Transporters in the Yeast Cyberlindnera jadinii” (Journal of Fungi, 2022):

Experiments:
[1] = substrate: CC(=O)O; experiment: cells, lysate or membranes; settings: pH 6.0, 30 °C, labelled compound, pH 6.0
[2] = substrate: O=C(O)CC(O)(CC(=O)O)C(=O)O; experiment: cells, lysate or membranes; settings: pH 5.5, 30 °C, labelled compound, pH 5.5

B1: CjJen5 (Williopsis jadinii) (protein)
chain: MDWDAFDFFVMSLNVSKLATDLDRSVKDISWGITVVLMFRSVGAIVFGYFGDRYGRKWPLIVNLFCLVVIQIGTGFINTYAEFIGVRALFGVFMGSMYGLASATAMEGLPTSARSFLSGVYQQGYALGYLLGVIFQRAITDTTTHTWRSLFWFSAGPPKLKPFLQQQLHMKNKNTSFSEDACKVFKEQWLKMIYLVLLMAGMNFMSHGSQDLYPTMLTVQLNYSPNRSTVTNSVANLGALAGGMTFGHFSGFLGRRSGIIICSILGACMIYPWAFVRNSGINAGVFFLQFFVQGAWGVIPIHLSELSPPEFRAFVVGVSYQLGNLASSASSTIESTLGERYPLYDDNGDVIEGVYDYARVMAIFVGAVFCYVILIAFIGPENRHSNINYVLSKEEEEELIQQRMIVTNNGSEQDSNADDEEKLVTAHTEKIEPK
Protein B1 has a Km [1] of 5.18 ± 1.51 mM.

B2: CjJen2 (Williopsis jadinii) (protein)
chain: MTSPLPVSPTQDSGLEEPKEDKNIGLTRTLQENEEDSNSSNDEDVPDYSWSSIKRYSRTRFTTLGELHLDSLSDLNPLPALKEMTPRNWNFFFMGFIAWFSASFAFFLTAVSGTVIAESLEVSTKDITWGLSSVLMVRSAGAVIFGLWTDNYSRKWPFIATAAMFCVLQIGTGFCNTYTQFLAGGTYATAAATSLEDAPLKARSTLSGLFFTAYPFGMVFAAIFWRAFQETDHTWKALFWFSAGIPFVLIIWRLLYPETIYFTELLKVKKLIKEEASTSPKISKWAKTKTMFSKYWLLFTYLVLLLASSNFLTHASQDMYPTMLRSQFGWSNDAQTVAIVVTNLGGVIGSLVTGIVMEVLGRRLSILLCCVIGGSFIYPALMLHTTSATLGCGFFMMFGVLGVWGVIPAHLSELSPPDARVLVSGLAYQLGNLASSASSTIETDLAQRWPLEWDAEGNVIRLDYAKTIAVFTGAVFIYTVVIALVGPEKYHRDLNSPLLKKYFAKLRENDVEKGSSSE
Work on B2 yielded a Km [1] of 1.26 ± 0.35 mM.

B3: CjJen3 (Williopsis jadinii) (protein)
chain: MAMSDVKRYILSRVPTLFCIPGTSFQALNPVPALSALSRNDWNYFLMGYAAWTIDAFDFFCVSACAPALAQALDRSVTDITWGITLVLMTREYFAHIDGQLTDIFEIGSLGAVIFGSLSDTYGRKPTYLAVMCLFCIIEVGTGFVQNYTQFLVVRAMFGICMGGCYTTASATALESQPVGSRSVLGGIFLPGYNLGYILAVAFYRAFEFTEHGWRALFWFSAAPPAILFVWRMFFPEHPHFTALKRVQREKALSEGKHHQASSPWAQFFADLKSAMRHHWLMFVYLVIYMSLMNFSSHASQDLMPTMLQNQLGFEANDRTIIMVVINIGAIFGGLCVGTISEYTGRRLAVFVCTICSSALIYPAFYTTDMAGLICGGFFMQFFVMGCWGVTSVYIMELSPNAFRALFGGLAYQLGNLASSASSTIEAEISEAFPLSDIGPEVYDYARSMALFMVGVNVCLVICIVSGPEKFHKDFSIQGEGQEQLQRKSCNDVDEELAIEYTEDLKHTDRVSWTEKHSIHHNEKT
In the case of B3, the Km [1] is reported as 3.21 ± 1.07 mM.

B4: CjAto1 (Williopsis jadinii) (protein)
chain: MSDKESQMLNTSQSQERAIDAGCDDLQEDVEHQQVPVSKVFTSGERDEYVMIGRTKVLRSELWNAFGGDLQPGIHAPPPRRFANPAPLGLCGFALTTFVLSMSNARAMGITVANVAVGPAFFYGGIIQLLSGMWEISLDNTFGGTVLSSYGGFWLSWAAIQIDWFGIQRAYDDPIMLNNGLGFFLLGWVIFTLMVLICTVKSTVAFFSLFFFLEMTFLLLTIGEFTRSVGVTRAAGVFGVITSFLGWYNALAGFATRENSYFVATAVPLPGAKRAQVHS
B4 gave a Km [1] of 12.18 ± 4.67 mM.

B5: CjAto3 (Williopsis jadinii) (protein)
chain: MAANVDLEKQATPNSSNDNHTFSPEDEAHPVSKVYTSGENDQYIMIGRTKVLRSELWNAFGGDLQPGIHATPPRRFANPAPLGLCAFALTTFVLSMVNARAMGITTPNIVVGLALFYGGFVQLLAGMWEIALDNTFGGTALSSYGGFWMSYAAIQIDWFGIKSAYTDPIELANAVSFFLLGWTIFTFMILLCTVKSTVSFFSLFFFLEITFLLLTIGDFTRRVGVTRAGGVFGVITAFIAWYNAFAGIATKENSYITIKAWPLPGAKRA
For B5, the Km [1] was 9.17 ± 4.70 mM.

B6: CjAto5 (Williopsis jadinii) (protein)
chain: MSTSSLPEDLEKGYATQSLHEMNTAVTNDPSQPVVMRVVTSSNGDIIHLGNQAFSKKDLFNAFAGDLQPGLHATPHRPMGNPVPMGLTSFCICCFVVSLVNAQARGVTNAKVIASCALFFAGVVETISGLWCLVIENTFAATALGSFGGFWMGYAGLLIDAFGITSSYSTTEELGNALGFYLTAWTIFAFLMWLCTFKSTWPFFILFLLVWVFLMCLAIGKYNDNTTATKAGGVLGLVATFVGFFIVYAGVADSSNSYLTIPASPMPHAPRV
In the case of B6, the Km [2] is reported as 22.21 ± 7.14 mM.

B7: CjJen1 (Williopsis jadinii) (protein)
chain: MHKLEESVTRQDSIHEDPDDVVIEDEQEIILNWPNIVEYSKTRFTSLTHLHLHAVGDLNPLPSLREMSWNNWNFFFMGFVAWFSASFDFFLTAVSGTYIAQSLDVSTADITWGLSAVLMVRSAGAVIFGLWTDNYSRKWPFITTAAMFCALQIGTGFCKTYQQFMAVRAISGIAMGGTYATAAATSMDDAPLKARSFLSGLFFSAYAFGMIFAAIFWRAFESTKHSWKALFWFSSCFPFILICWRLVFPETRYFTRVLKARELIKQDQIEAGVYVKPTLKTKWGSVKAMLKKDWLLFTYLVILLAGTNYLTHASQDMYPTMLRSQLEWSLDAQTVAIVVVNLGAICGGLIAGTFMEVTGRRLAILICCVIGGCFVYPAYMMHNNSAVLGGGFFLFFAVIGVWGVLPIHLSELSPPDARALVSGLAYQLGNLASSASSTIETRLAKLWPLEWDAEGNPIKYDYAKTIACFTGAVFIYVFITTFIGPEKFHRDLSSPLLKTYIEKVIEIEEGRDPEAKFVTSSGDTSEQASYGKATHEEIELDCYPQEKK
B7 showed a Km [1] of 2.15 ± 0.60 mM.

B8: CjJen4 (Williopsis jadinii) (protein)
chain: MTAGRYIATRIPSLFTLPGTPVKSLNPAPAMRALSRSDWNYFAMGYCAWVIDAFDFFCVSACAPALAKAFDRSIHDITWGITLVLMTRSLGAVIFGSLSDTYGRKPTYLAVMALFSIIEIGTGFVQNYTQFLIVRLLFGICMGGCYTTASATALESQPTTSRSVLGGIFLPGYNLGYILAVAFYRAFEFSTHGWRALFWFSAAPPAILFMWRLMFPEHPHFVEHKRVQREKALAEGNHAQAASPWRQFYSDLKKALSNHWLMFVYLVFYLSLMNFSSHASQDLMPTMLQNQLFFSANQRTAIMIVVNLGAMVGGLCVGTLSEFTGRRLAIFSCAVGSSALIYPAFFSTSIGGLMAGGFFMQFFVMGCWGVCSVYIMELSPPAFRALFGGLAYQLGNLASSASSTIESEISSSFPLPDLGPSVYDYAKSMALFMVGVNVCLIVCIVCGPEYFHRDFSAHAEENYSDQKKATIEQFDTASDEERAMGSLKMNTEVEEFDMDKASVQHRESARD
With B8 the Km [1] was 1.62 ± 0.43 mM.

B9: CjAto4 (Williopsis jadinii) (protein)
chain: MSDKENQTLNNPQTQDYASTGGKPDVEHGEIPVSKVYTTGDQDEYLMIGHQKVLRSELWTAFGGDLQPGVHAPPPQRLANPAPLGLCGFALTTFVLSMANARAMGVTIPNAAVGAACFYGGLVQLLAGMWEISLDNTFGGTALSSYGGFWMSWAAIQIDWFGIKKAYDDPIMLANAVGFFLLGWTIFTFMLVLCTVKSTVAFFSLFFFLDITFLLLTIGEFTRKTGVSRAGGVFGVITSFIAWYNAFAGLATKENSYVVAIPLPLPGAKRS
For B9, the Km [1] was 1.28 ± 0.38 mM.
